From the supplement of paper PMC9233669
Variants at the floor of the assay were thinned out.

Legend:
[1] = test system: biotinyl-Phe-oxazolone; experiment: self-aminoacylation, catalytic enhancement (BFO) (fold over background); higher = more active; k-Seq, kA / k0A0; sequences stand for … in GGGAAUGGAUCCACAUCUACGAAUUC…UUCACUGCAGACUUGACGAAGCUG
How it was run: (§1)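 Mutagenized RNA pools with a 21-nt variable region (0.43 μM) were reacted with each biotinyl-aminoacyl-oxazolone at 2–1250 μM for 90 minutes at room temperature, in 50 μL HEPES/NaCl/KCl/MgCl2/CaCl2 buffer containing 5% acetonitrile at pH 6.9–7.0. RNA captured on streptavidin was quantified by triplicate qPCR and by Illumina sequencing. The fraction reacted for each sequence was fit to a pseudo-first-order model with bootstrapping, and catalytic enhancement is the median kA divided by the uncatalyzed rate, taken as the low-activity peak of a bimodal Gaussian fit.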

[2] = test system: biotinyl-Trp-oxazolone; experiment: self-aminoacylation, catalytic enhancement (BWO) (fold over background); higher = more active; k-Seq, kA / k0A0; sequences stand for … in GGGAAUGGAUCCACAUCUACGAAUUC…UUCACUGCAGACUUGACGAAGCUG
How it was run: as §1

[3] = test system: biotinyl-Leu-oxazolone; experiment: self-aminoacylation, catalytic enhancement (BLO) (fold over background); higher = more active; k-Seq, kA / k0A0; sequences stand for … in GGGAAUGGAUCCACAUCUACGAAUUC…UUCACUGCAGACUUGACGAAGCUG
How it was run: as §1

[4] = test system: biotinyl-Val-oxazolone; experiment: self-aminoacylation, catalytic enhancement (BVO) (fold over background); higher = more active; k-Seq, kA / k0A0; sequences stand for … in GGGAAUGGAUCCACAUCUACGAAUUC…UUCACUGCAGACUUGACGAAGCUG
How it was run: as §1

[5] = test system: biotinyl-Met-oxazolone; experiment: self-aminoacylation, catalytic enhancement (BMO) (fold over background); higher = more active; k-Seq, kA / k0A0; sequences stand for … in GGGAAUGGAUCCACAUCUACGAAUUC…UUCACUGCAGACUUGACGAAGCUG
How it was run: as §1

[6] = test system: biotinyl-Ile-oxazolone; experiment: self-aminoacylation, catalytic enhancement (BIO) (fold over background); higher = more active; k-Seq, kA / k0A0; sequences stand for … in GGGAAUGGAUCCACAUCUACGAAUUC…UUCACUGCAGACUUGACGAAGCUG
How it was run: as §1

| Sequence | self-aminoacylation [1] | self-aminoacylation [2] | self-aminoacylation [3] | self-aminoacylation [4] | self-aminoacylation [5] | self-aminoacylation [6] |
| --- | --- | --- | --- | --- | --- | --- |
| AUUAACCUAGUCAUCGAGUGA [Fam2.1 aminoacylation ribozyme variant] | 15.5 | 7.12 | 5.13 | 2.96 | 4.95 | 2.94 |
| AUUAACCUGAUCAUCGAGUGA [Fam2.1 aminoacylation ribozyme variant] | 41.3 | 13.7 | 10.2 | 4.67 | 9.97 | 4.54 |
| AUUAACCUGGGUCAUCGGGUG [Fam2.2 aminoacylation ribozyme variant] | 39.6 | 11.4 | 15.6 | 6.35 | 13.4 | 6.99 |
| AUUAACCUGGUCACCGAGUGA [Fam2.1 aminoacylation ribozyme variant] | 40.8 | 7.92 | 8.22 | 3.69 | 6.76 | 3.88 |
| AUUAACCUGGUCAGCGAGUGA [Fam2.1 aminoacylation ribozyme variant] | 19.5 | 4.66 | 4.19 | 2.81 | 4.41 | 2.57 |
| AUUAACCUGGUCAUCGAGAGA [Fam2.1 aminoacylation ribozyme variant] | 0.933 | 0.872 | 0.844 | 0.783 | 0.749 | 0.888 |
| AUUAACCUGGUCAUCGCGUGA [Fam2.1 aminoacylation ribozyme variant] | 126 | 21.5 | 19.1 | 7.74 | 17.2 | 8.07 |
| AUUAACCUUGGUCAUCGGGUG [Fam2.2 aminoacylation ribozyme variant] | 41.7 | 7.04 | 8.28 | 4.16 | 6.37 | 3.91 |
| AUUAACGUAGGUCAUCGGGUG [Fam2.2 aminoacylation ribozyme variant] | 42.1 | 3.61 | 3.84 | 3.05 | 4.05 | 2.52 |
| AUUAACGUGGUCAUCGAGUGA [Fam2.1 aminoacylation ribozyme variant] | 18.6 | 6.07 | 4.72 | 2.75 | 4.88 | 2.95 |
| AUUAACUUGGUCAUCGAGUGA [Fam2.1 aminoacylation ribozyme variant] | 3.99 | 4.83 | 4.16 | 2.48 | 3.67 | 2.9 |
| AUUACACUGAUCAUCGAGUGA [Fam2.1 aminoacylation ribozyme variant] | 21.1 | 7.71 | 6.95 | 3.71 | 6.59 | 3.19 |
| AUUACACUGGUCACCGAGUGA [Fam2.1 aminoacylation ribozyme variant] | 24.5 | 7.35 | 5.41 | 2.91 | 5.29 | 2.95 |
| AUUACACUGGUCAUCGACUGA [Fam2.1 aminoacylation ribozyme variant] | 1.11 | 0.546 | 0.807 | 0.965 | 0.596 | 1 |
| AUUACACUGGUCAUCGAGGGA [Fam2.1 aminoacylation ribozyme variant] | 0.709 | 2.72 | 1.4 | 1.37 | 1.26 | 1.64 |
| AUUACACUGGUCAUCGAGUGC [Fam2.1 aminoacylation ribozyme variant] | 0.887 | 1.56 | 1.38 | 1.05 | 1.32 | 1.06 |
| AUUACACUGGUCAUCGAGUGU [Fam2.1 aminoacylation ribozyme variant] | 2.05 | 3.07 | 2.47 | 1.66 | 2.61 | 1.73 |
| AUUACACUGGUCAUCUAGUGA [Fam2.1 aminoacylation ribozyme variant] | 35 | 6.76 | 6.24 | 2.65 | 5.64 | 3.07 |
| AUUACACUGGUCGUCGAGUGA [Fam2.1 aminoacylation ribozyme variant] | 2.53 | 0.958 | 1.44 | 1.38 | 1.14 | 1.25 |
| AUUACACUGGUUAUCGAGUGA [Fam2.1 aminoacylation ribozyme variant] | 45.5 | 10.3 | 8.73 | 3.72 | 7.64 | 4.23 |
| AUUACAUUGGUCAUCGAGUGA [Fam2.1 aminoacylation ribozyme variant] | 22.8 | 6.85 | 5.8 | 2.95 | 5.35 | 3.03 |
